Here are results for 2 substances from patent US6979460B1, “Vinyl ether lipids with cleavable hydrophlic headgroups” (Purdue Research Foundation, priority 1999, dated 2005).

Data set [1] is described as follows: Acid-triggered calcein release from DOPE:vinyl ether lipid vesicles (calcein fluorescence dequenching assay). The class given is physicochemical. On the procedure: DOPE and the labile PEG lipid were co-dissolved in chloroform that had been prefiltered through a 2.53 cm plug of anhydrous sodium carbonate to remove traces of acid and water from the solvent. This solution was evaporated under a gentle stream of N2 and further dried under vacuum (<200 μ, 4 h). Vesicles were formed by hydrating the lipid film in the presence of 50 mM calcein using five LN2 freeze-thaw-vortex cycles. This suspension was then extruded at 50° C. through two 100 nm track-etch polycarbonate membrane filters. Extraliposomal calcein was removed using a single pass through a 40 cm Sephadex G-50 gel column equilibrated with 150 mM NaCl. The fraction eluting at the void volume was collected and stored at 8° C. until use. Light-sensitive vesicles were prepared in the same manner, except that bacteriochlorophyll a (Bchl) was codissolved in the chloroform lipid solution. Other agents or mixtures of agents, such as therapeutic compounds or diagnostic agents, are substituted for calcein in the above protocol resulting in liposomal encapsulation of the substituted agent.
Vesicle release of the liposomes made in example 4 above, was monitored at 37° C. as a function of time using the calcein fluorescence dequenching assay. Acid-trigged release was initiated by dilution of the vesicles into an acidic buffer solution as described by Gerasimov et al. Light-triggered release was promoted by aerobic illumination (800 nm, 1 W) of a continuously stirred 1 cm quartz cuvette with a SDL 820 diode laser coupled to an optical fiber. The fiber was mounted perpendicular to the cuvette surface to produce a spot of ˜3 mm diameter. Both triggering methods were conducted either in the absence or presence of ten-fold excess of egg phosphatidylcholine (EPC) vesicles as a membrane “sink”.

For data set [2] the following is noted: DOPE:CVEP/calcein vesicles with DSPE-PEG3350-folate as targeting ligand.

For “rac-1,2-Dioleyl-3-(4′-hydroxy-1′-butenyl)-glyceryl polyethylene [125] glycolate [DVEP]”, the t50% release entry in data set [1] (98:2 DOPE:DVEP vesicles, pH 4.5, in the absence of sink EPC) is on record as “≈ 3 h”; in data set [1] (98:2 DOPE:lipid vesicles (identical loadings), pH 4.5, 37° C.) it was 23 min. For the same substance, the calcein leakage result in data set [1] (98:2 DOPE:DVEP vesicles, pH 7.4, sink EPC present or not) is reported as “lack of leakage”.

Turning to “4-o-Cholesteryl-(3Z-buten-1-yl)-polyethylene [125] glycolate [CVEP]”, in data set [2], the “cellular calcein fluorescence pattern (cytoplasmic delivery)” value is “punctuated fluorescence, followed by diffuse cytoplasmic fluorescence”.
